The target of one test is Nogo1-40. As to the kind of experiment: SPA competition: Ig-sNogoR1-310 added in rising amount [ug] against binding of 125I-Nogo1-40-C to sNogoR310.
Test [1] has as its target sNgR310 (recombinant fragment of rat NgR1, aa 27-310) (rat) (UniProt Q99M75). As to the kind of experiment: SPA, unlabelled Nogo66 (x axis Nogo66 Conc [M]) displacing 125I-Nogo66 from sNogoR310; Bound SPA cpm falls from about 2900 to about 2050; the unit stands on the axis, not in the table.
Another test has as its target sNogoR310-Fc (rat) (UniProt Q99M75). As to the kind of experiment: SPA, unlabelled Nogo1-40 (x axis Nogo1-40 [M]) displacing 125I-Nogo1-40-C from sNogoR310-Fc; the unit stands on the axis, not in the table.

Sequence of sNgR310 (recombinant fragment of rat NgR1, aa 27-310) (rat) (Q99M75 other isoform, or with tags, fused parts or gaps): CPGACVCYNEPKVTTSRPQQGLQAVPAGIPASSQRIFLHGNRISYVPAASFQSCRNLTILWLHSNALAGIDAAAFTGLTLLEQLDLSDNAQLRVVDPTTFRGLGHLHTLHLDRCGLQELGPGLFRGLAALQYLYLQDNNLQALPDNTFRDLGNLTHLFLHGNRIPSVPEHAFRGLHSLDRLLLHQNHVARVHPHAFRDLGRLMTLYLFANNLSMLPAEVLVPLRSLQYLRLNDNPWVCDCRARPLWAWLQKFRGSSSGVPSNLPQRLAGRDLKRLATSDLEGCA
Sequence of sNogoR310-Fc (rat) (Q99M75 other isoform, or with tags, fused parts or gaps): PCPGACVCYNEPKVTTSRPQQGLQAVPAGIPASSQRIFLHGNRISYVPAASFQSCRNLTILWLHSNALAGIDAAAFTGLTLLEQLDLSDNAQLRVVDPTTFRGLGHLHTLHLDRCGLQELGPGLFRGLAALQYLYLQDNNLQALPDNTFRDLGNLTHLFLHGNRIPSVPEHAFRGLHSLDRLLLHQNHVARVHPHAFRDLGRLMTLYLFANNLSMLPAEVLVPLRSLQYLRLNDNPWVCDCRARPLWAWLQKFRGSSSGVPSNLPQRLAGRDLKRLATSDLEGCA
Sequence of Nogo1-40 (peptide) (Q9NQC3 1055-1094): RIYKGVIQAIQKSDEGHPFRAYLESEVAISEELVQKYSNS
Sequence of Nogo1-40 (Q9NQC3 1055-1094): as above

The IC50 is the midpoint of a concentration-inhibition curve. In the test with Nogo1-40, “sNogoR310-Fc (from UniProt Q99M75 26-310) (Fc fusion)” had a 50% inhibitory concentration (IC50) of 100 nM.

In general, EC50 refers to the midpoint of the concentration-response curve. For Nogo66 (ligand), in test [1], the EC50 stood at 303 nM.

In turn, Nogo1-40 (peptide) yielded an EC50 with sNogoR310-Fc (rat) of 120 nM.

Source of the values: patent US8669345.
